Legend:
[1] = substrate: NC(=O)c1ncn([C@@H]2O[C@H](COP(=O)(O)O)[C@@H](O)[C@H]2O)c1NC=O; experiment: purified protein; assay type: biochemical, Cryptococcus neoformans; details: IMP cyclohydrolase activity, 100 mM Tris-Cl pH 7.5, 37 °C
[2] = target: the molecule itself; experiment: SEC-MALS

B1: Cryptococcus neoformans AICAR transformylase/IMP cyclohydrolase (ATIC) (enzyme, UniProt J9VJP1 1-605, looked up)
chain: MSSEAPIALLSVYDKTGLLPFAKSLKELGFRLLGSGGTAKMIREAGMEIEDVSNITKAPEMLGGRVKTLHPAVHGGILSRDIPSDLADLATNKISPITLVVCNLYPFVLQTAKPDCTLAGAIEEIDIGGVTLLRAAAKNHGRVSIISSPSDYETIVAELRAKGEVSAETRRGLAIKAFEDTKSYDEAISDYFRKVYATPGVEEEMKAGAGVGYQRLGLRYGANPHQKPAQAFVEQGEMPIKVLSGSPGYINLLDALNSWALVKELAAGLDLPAAASFKHVSPAGAAVGLPLDERAAKVFGVEDLKELSPLACAYARARGADRMSSFGDFIALSHTVDTPTAKIISREVSDGVIAPGYEPEALEILSKKKGGKYCVLQMDPTYVPPEIETRQVYGISLQQKRNDCKIDESLFKNVVTANKDLPKSAVTDLVVATLALKYTQSNSVCYALNGTVIGLGAGQQSRIHCTRLAGDKADNWWLRHHPRVLELPFKKGTKRADKANAIDLFVTGQAFEAEGGERAQWESLFETVPEPLTKEEREKHMKELTGVACASDAFFPFPDNVHRAKRSGATYLAAPSGSIMDKECIKAADESNLVFCHTDLRLFHH
For B1, which Km [1] is on record?
Its Km is 30 ± 1 µM.

What about the Vmax [1] of the same protein?
The Vmax was 8.6 µmol/min/mg.

And the kcat [1]?
The kcat was 7.7 ± 0.1 s⁻¹.

And the “stoichiometry N” value [2]?
Its value is 2.
